From patent US20220315645A1

Biological target: HBsAg on HBV virions (HBV from HepDE19 cell supernatant) (Hepatitis B virus)
Assay: cell-based or functional assay

Substance: libivirumab (antibody)
- IC50, in vitro HBV neutralization on HepG2-NTCP cells (ELISA read-out): 0.035 µg/mL
- IC50, in vitro HBV neutralization on HepG2-NTCP cells (HBcAg immunofluorescence read-out): 0.128 µg/mL
